Experimental data from US20230391844.

How the values were obtained:
[1] = system: mAb-PCL(15AA)-IL2-PCL(15AA)-IL2Rα
[2] = system: mAb-PCL(15AA)-IL2-PCL(20AA)-IL2Rα

recombinant human uPA (R&D Cat #1310-SE)
release of free IL2 after uPA digestion (reducing SDS-PAGE, western blot probed with biotinylated anti-hIL2) [1]: Protease digestion of the IL2 proproteins with uPA resulted in the release of free IL2 from both IL2 proproteins
release of free IL2 after uPA digestion (reducing SDS-PAGE, western blot probed with biotinylated anti-hIL2) [2]: the IL2 proprotein construct comprising a 20AA linker between IL2 and IL2Rα domains displayed a more complete linker digestion and IL2 release relative to the construct comprising a 15AA linker between IL2 and IL2Rα
